The record followed here is the nanobody polyreactivity screen of Harvey et al. (2022).

A short description of this data set: yeast display, Sf9 membrane polyspecificity reagent, FACS + sequencing; frameworks hold sequencing errors. In a few lines: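 A nanobody's polyreactivity label depends on the gate it was sorted from. Yeast display cells were stained with 10% biotinylated, detergent-solubilized Sf9 membrane reagent for 1 hour at 4 °C, enriched on streptavidin microbeads and sorted by FACS. The low and high (top ~1%) gates were set on anti-HA fluorescence for expression and streptavidin fluorescence for reagent binding.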
On to “QVQLVESGGGLVQAGGSLRLSCAASGRTFWGYAMGWYRQAPGKERELVATISSTGSTNYADSVKGRFTISRDNAKNPVYLQMNSLKPEDTAVYYCNAKRHLYRGWYQRYDYWGQGTQVTVSS”, for which the “polyreactivity (PSR sort gate)” value is “high polyreactivity”.
To “QVQLVESGGGLVQAGGSLRLSCAASGRTFWKNTMGWYRQAPGKERELVAVISSGGVSTSYADSVKGRFTISRDNAKNTVYLQMNSLKPEDTAVYYCAADGYYIGPYDYWGQGTQVTVSS” belongs “low polyreactivity”; to “QVQLVESGGGLVQAGGSLRLSCAASGRTFWKYAMGWYRQAPGKERELVAAITASGARTYYADSVKGRFTISRDNAKNTVYLQLNSLKPEDTAVYYCNAGSVSDRQMDYWGQGTQVTVSS”, “low polyreactivity”.
As for “QVQLVESGGGLVQAGGSLRLSCAASGRTFWKYVMGWYRQAPGKEREVVAVISRPAGSTYYADSVKGRFTISRDNAKNTVYLQMNSLKPEETAVYYCNKPGGQSLGGYNYWVQGTQVTVSS”, the entry is “low polyreactivity”.
For “QVQLVESGGGLVQAGGSLRLSCAASGRTFWLYAMGWYRQATGKERELVAGISRGGRTYYADSVKGRFTISRDNAKNTVYLQMNSLKPEDTAVYYGAADRYTVRMDCWGQGTQVTVSS”, the “polyreactivity (PSR sort gate)” value was “high polyreactivity”.
For “QVQLVESGGGLVQAGGSLRLSCAASGRTFWNAMGWYRQAPGKERELVATITSGGITNYADSVKGRFTISRDNAKNTVYLQMNSLKPEDTAVYYCAARPYSWRNYRPSDYWGQGTQVTVSS”, the “polyreactivity (PSR sort gate)” value is on record as “high polyreactivity”.
As to “QVQLVESGGGLVQAGGSLRLSCAASGRTFWNYAMGWYRQAPGKERELVAAIRSSGGRTYYADSVKGRFTISRDNAKNTVYLQMNSLKPEDTAVYYCAAYGFIEGIGTYDYWGQGTQVTVSS”, the “polyreactivity (PSR sort gate)” value was “high polyreactivity”.
“QVQLVESGGGLVQAGGSLRLSCAASGRTFWPNVMGWYRQAPGKERELVAAITWGDASTYYADSVKGRFTISRDNAKNTVYLQMNSLKPEDTAVYYCAASDYGRTYDYWGQGTQVTVSS”: the “polyreactivity (PSR sort gate)” value is recorded as “low polyreactivity”.
“QVQLVESGGGLVQAGGSLRLSCAASGRTFWQYAMGWYRQAPGKERELVAAIRYSGGSTYYADSVKGRFTISRDNAKNTVYLQMNSLKPEDTAVYYCAKRLKPGFYYWGQGTQVTVSS”: the “polyreactivity (PSR sort gate)” value is “high polyreactivity”.
With “QVQLVESGGGLVQAGGSLRLSCAASGRTFWRYAMGWYIQAPGKERELVAAISSSGITYYADSVKGRFTISRDNAKNTVYLQMNSLKPEDTAVYYCAVRWGRGFWGQGTQVTVSS”, the “polyreactivity (PSR sort gate)” value is “high polyreactivity”.
On to “QVQLVESGGGLVQAGGSLRLSCAASGRTFWRYAMGWYRQAPGKERELVARISSGGSTYYADSVKGRFTISRDNAKNTVYLQINSLKPEDTAVYYCAVLSRHRRVPWYRYNYWGQGTQVTVSS”, for which the “polyreactivity (PSR sort gate)” value was “low polyreactivity”.
As for “QVQLVESGGGLVQAGGSLRLSCAASGRTFWRYAMGWYRQAPGKERELVARISWRGGSTNYADSVKGRFTISRDNAKITVYVQMNSLKAEDTAVYYCAADNSRYFLTGYDYWGQGTQVTVSS”, the “polyreactivity (PSR sort gate)” value is on record as “low polyreactivity”.
As for “QVQLVESGGGLVQAGGSLRLSCAASGRTFWSNAMGWYIQAPGKERELVAVIYTTTGNTYYADSVKGRFSISRDYAKNTVYLQMNSLKPEDTAVYYCNTRSGAFFLSKPYDYWGQGTQVTVSW”, the “polyreactivity (PSR sort gate)” value is “low polyreactivity”.
Regarding “QVQLVESGGGLVQAGGSLRLSCAASGRTFWSNAMGWYRQAPGKERELVADITLSGGRTYYADSVKGRFTISRDNAKNTVYLHMNILKPEDTAVYYCAASATPSGVGMDYWGQGTQVTVSS”, the “polyreactivity (PSR sort gate)” value is recorded as “low polyreactivity”.
Regarding “QVQLVESGGGLVQAGGSLRLSCAASGRTFWSNAMGWYRQAPGKERELVATISSGGGNTYYADSVKGRFTISRDNAKNTVYLQLNSLKPEDTAVYYCAATKYRWTYAASFGYWGQGTQVTVSS”, the “polyreactivity (PSR sort gate)” value is recorded as “high polyreactivity”.
In the case of “QVQLVESGGGLVQAGGSLRLSCAASGRTFWSNGMGWYRQAPGKERELVASISTSGGRTYYADSVKGRFTISRDNAKNTVYLQMNSLKPEDSAVYYCAARTVYRGRAYDYWGQGTQVTVSS”, the “polyreactivity (PSR sort gate)” value is listed as “high polyreactivity”.
On to “QVQLVESGGGLVQAGGSLRLSCAASGRTFWSYAMGWYRQAPGKERELVAAITSSGGTTNYADSVKGRFTISRDNAKNTVYLQMNSLKPEDTAVYYCAAYSWYFGSRYDYWGQGTQVTVSS”, for which the “polyreactivity (PSR sort gate)” value is listed as “low polyreactivity”.
As to “QVQLVESGGGLVQAGGSLRLSCAASGRTFWTNAMGWYRQAPGKERELVAAISWTTGSTNYADSVKGRFTISRDNAKNTVYLQMNSLKPEDTAVYYCAAQTYCTFHTYYYWGQGTQVTVSS”, the “polyreactivity (PSR sort gate)” value is given as “low polyreactivity”.
As for “QVQLVESGGGLVQAGGSLRLSCAASGRTFWVYAMGWYRQAPGKERELVAGISWDDGSTDYADSVKGRFTISRDNAKNTVYLQMNSLKPEDTAVYYCNAGEYYKGYYYWGQGTQVTVSS”, the “polyreactivity (PSR sort gate)” value is on record as “low polyreactivity”.
In the case of “QVQLVESGGGLVQAGGSLRLSCAASGRTFWVYAMGWYRQAPGKERELVASISWSVGSTYYADSVKGRFTISRDNAKNTVYLQMNSLKPEDTAVYYCNKTTLLTVEYDYWGQGSQVTVSS”, the “polyreactivity (PSR sort gate)” value is recorded as “low polyreactivity”.
On to “QVQLVESGGGLVQAGGSLRLSCAASGRTFWWNAMAWYTQAPGKERELVAVISKRGGTTYYADSVKGRFTNSRDNAKNTVYLPMNSLKPEDTAVYVFAADQQSHYGYWGQGTQVTVSS”, for which the “polyreactivity (PSR sort gate)” value was “high polyreactivity”.
Take “QVQLVESGGGLVQAGGSLRLSCAASGRTFWWYAMGWYRQAPGKERELVAAITWSTGITFYADSVKGRFTISRDNAKNTVYLQMNILKPEDTAVYYCAADTGTFFGGFDYWGQGTQVTVSS”: the “polyreactivity (PSR sort gate)” value is “high polyreactivity”.
As to “QVQLVESGGGLVQAGGSLRLSCAASGRTFWWYAMGWYRQAPGKERELVADINGSGGSTYYADSVKGRFTISRDNAKHTVYLQMNSLKPEDTAVYYCAADYYRYIHSVVYSIYDYWGQGTQVTVSS”, the “polyreactivity (PSR sort gate)” value was “low polyreactivity”.
Turning to “QVQLVESGGGLVQAGGSLRLSCAASGRTFWWYAMGWYRQEPGKERELVAAITWSGGSTYYADSVKGRFTISRDNAKNTVYLQMNSLKPEDTAVYYCAAYVHNKYDYWGQGTQVTVSS”, the “polyreactivity (PSR sort gate)” value is given as “low polyreactivity”.
Consider “QVQLVESGGGLVQAGGSLRLSCAASGRTFWYYAMGGYRQAPGKERELVAYADSVKGRFTISRDNAKNTVYLQMNSLKPEDTAVYYCAVGPVVWFSSSLYYTDYYYWGQGTQVTVSS”, for which the “polyreactivity (PSR sort gate)” value is “low polyreactivity”.
To “QVQLVESGGGLVQAGGSLRLSCAASGRTFWYYAMGWNRQAPGKERELVAAITRGTSTYADSVKGRFTISRDNAKNTVYLQMNSLKPEDTAVFYCAADTWVTRNSRYDYWGQGTQVTVSS” belongs “high polyreactivity”; to “QVQLVESGGGLVQAGGSLRLSCAASGRTFWYYAMGWYRQAPGKEREFVAAISWSGGSTYYADSVKGRFTISRDNAKNTVYLQMNTLKPEDSAVYYCAASPVWWYDYWGQGTQVTVSS”, “low polyreactivity”; to “QVQLVESGGGLVQAGGSLRLSCAASGRTFWYYTMGWYRQAPGKERELVAAISSGGRTNYADSVKGRFTISRDNAKITVYLQMNSLKPEDTAVYYCATSRYYKYVERDYWGQGTQVTVSS”, “high polyreactivity”.
To “QVQLVESGGGLVQAGGSLRLSCAASGRTFWYYTMGWYRQAPGKERELVAANTSVGSTYYADSVKGRFTISRDNAKNTVYLQMNSLKPEDTAVYYCATLYSYTHQSFDHWGQGTQVTVSS” belongs “high polyreactivity”; to “QVQLVESGGGLVQAGGSLRLSCAASGRTFWYYTMGWYRQAPGKERELVASITYRGGSTYYADSVKGRFTISRDNAKNNVYLQMNSLKPEDTAVYYCNARYKRYSYDYWGQGTQVTVSS”, “high polyreactivity”.
For “QVQLVESGGGLVQAGGSLRLSCAASGRTFYANAMGWSRQAPGRERELVAAISTGGDGTYYADSVKGRFTISRDYAKITVYLQMNSLKPEDTAVYDCAVRHRASGILYYYWGQGTQVTVSS”, the “polyreactivity (PSR sort gate)” value was “low polyreactivity”.
For the sequence “QVQLVESGGGLVQAGGSLRLSCAASGRTFYANAMGWYRQAPGKERELVAAISSNGGSTYYADSVKGRFTISRDNAKNTVYLQMNSLKPEDTAVYYCAVVSRYKAWRKYDYWGQGTQVTVSS”, the “polyreactivity (PSR sort gate)” value is listed as “high polyreactivity”.
“QVQLVESGGGLVQAGGSLRLSCAASGRTFYAYAMGWSRQAPGKERELVAAITSGASTYYADSVKGRFTISRDNAKNTVYLQMNSLKPEDTAVYYCAKRVRYYKPGYDYWGQGTQVTVSS”: the “polyreactivity (PSR sort gate)” value is listed as “low polyreactivity”.
As for “QVQLVESGGGLVQAGGSLRLSCAASGRTFYAYAMGWYRQAPGKERELVAAIRISGTSTYYADSVKGRFTISRDNAKNTVYLQMNSLKPEDTAVYYCARYVKLSGYGFYYWGQGTQVTVSS”, the “polyreactivity (PSR sort gate)” value is on record as “high polyreactivity”.
To “QVQLVESGGGLVQAGGSLRLSCAASGRTFYAYAMGWYRQAPGKERELVAVITRSGGRTNYADSVKGRFTISRDNAKNTVYLQMNSLKPEDTAVYYCAARADWRQVSFYYWGQGTQVTVSS” belongs “high polyreactivity”.
For the sequence “QVQLVESGGGLVQAGGSLRLSCAASGRTFYDNAMGWYRQAPGKERELVAAITKSGGRTYYADSVKGRFTISRDNAKNTVYLQMNSLKPEDTAVYYCAASWPNYLYEYWGQGTQVTVSS”, the “polyreactivity (PSR sort gate)” value is “high polyreactivity”.
For “QVQLVESGGGLVQAGGSLRLSCAASGRTFYDYAMGWYREAPGKEMELVASIRGSDGSTYYADSVKGRFTISRDKAKNTVYLQMNSLKPEDTSVYYCAARGFYGTNGRVYITSYYYLGQGTQVTVSS”, the “polyreactivity (PSR sort gate)” value was “high polyreactivity”.
As for “QVQLVESGGGLVQAGGSLRLSCAASGRTFYDYAMGWYRQAPGKERELVAAITYSGGSTFYADSVKGRFTISRDNAKNTVYLQMNSLKPEDTAVYYCAAEVLLLVGAAEYDYWGQGTQVTVSS”, the “polyreactivity (PSR sort gate)” value is given as “low polyreactivity”.
Turning to “QVQLVESGGGLVQAGGSLRLSCAASGRTFYDYAMGWYRQAPGKESEFVAAITDRDASTSYADSVKGRFTISRDNAKNTVYLQMNSLKPEDTAVYYCAADQYWYKPYVGELYDYDYWGQGTQVTVSS”, the “polyreactivity (PSR sort gate)” value is listed as “low polyreactivity”.
To “QVQLVESGGGLVQAGGSLRLSCAASGRTFYDYARGWYRQGPGKERELVAAITSGGSTNYADSVKGRFTISRDNAKNTVYLQMNSLKPEDTAVYYCAADDCYVWGFDMNYWGQGTQVTVSS” belongs “high polyreactivity”; to “QVQLVESGGGLVQAGGSLRLSCAASGRTFYEYAMGWYRQAPGKERELVAGITSGGSTNYADSVKGRFTISRDNAKNTVYLQMNSLKPEDTAVYYCDASYWGYEYDYWGQGTQVTVSS”, “low polyreactivity”.
